{"source": "paper PMC9676404", "about": "“Three-dimensional structure of a mycobacterial oligoribonuclease reveals a unique C-terminal tail that stabilizes the homodimer” (The Journal of Biological Chemistry, 2022)", "key": {"[1]": {"molecular_target": "Ms_ornΔC (C-terminal deletion mutant of Ms_orn lacking residues 186-209) (Mycobacterium smegmatis mc2155)", "assay": "not stated; oligomeric state of purified Ms_ornΔC, shown in Fig. S3"}, "[2]": {"molecular_target": "Orn of Mycobacterium smegmatis (MSMEG_4724, clone B) (Mycobacterium smegmatis mc2155)", "assay": "SEC; Superdex-75 column, Ms_orn with increasing concentrations of Gdm-HCl"}, "[3]": {"molecular_target": "Orn of Mycobacterium smegmatis (MSMEG_4724, clone B) (Mycobacterium smegmatis mc2155)", "assay": "SEC; Superdex-75 (10/300) column, 20 mM Tris-HCl pH 8.5, 100 mM NaCl; elution volume compared with molecular weight standards"}, "[4]": {"molecular_target": "Orn of Mycobacterium smegmatis (MSMEG_4724, clone B) (Mycobacterium smegmatis mc2155)", "assay": "SEC-MALS; Superdex-75 (10/300) with in-line MALLS and refractive index detectors, room temperature, 20 mM Tris-HCl pH 8.5, 100 mM NaCl, 5% glycerol, 0.5 ml/min; 200 ul of 3 mg/ml Ms_orn or 6 mg/ml Eco_orn"}, "[5]": {"molecular_target": "the molecule itself", "assay": "SEC; Superdex-75 (10/300) column, 20 mM Tris-HCl pH 8.5, 100 mM NaCl; elution volume compared with molecular weight standards"}}}
{"molecule": "Ms_ornΔC (C-terminal deletion mutant of Ms_orn lacking residues 186-209) (domain or fragment)", "values": [{"measurement": "stoichiometry N", "setting": "[1]", "value": 2}]}
{"molecule": "Orn of Mycobacterium smegmatis (MSMEG_4724, clone B) (enzyme)", "values": [{"measurement": "stoichiometry N", "setting": "[2]", "value": 2}, {"measurement": "stoichiometry N", "setting": "[3]", "value": 2}, {"measurement": "stoichiometry N", "setting": "[4]", "value": 2}]}
{"molecule": "Orn of Escherichia coli (enzyme, Escherichia coli K-12, UniProt P0A784 1-181, looked up, Oligoribonuclease (Orn) of Escherichia coli K-12; open reading frame of orn amplified from genomic DNA; residues 2-181 traced in the structure; also called oligoribonuclease; not shown: His10-Smt3, N-terminal, cleaved) MSANENNLIWIDLEMTGLDPERDRIIEIATLVTDANLNILAEGPTIAVHQSDEQLALMDDWNVRTHTASGLVERVKASTMGDREAELATLEFLKQWVPAGKSPICGNSIGQDRRFLFKYMPELEAYFHYRYLDVSTLKELARRWKPEILDGFTKQGTHQAMDDIRESVAELAYYREHFIKL", "values": [{"measurement": "stoichiometry N", "setting": "[5]", "value": 2}]}
